Test results taken from patent publication US20220411483A1 (Chugai, published 2022).
Values belong to the binder of their own block, whether it stands above or below them.

Assays:
[1] = molecular target: T1, Human IgA (recombinant, H (WT)-IgA1 / L (WT)) (human); experiment: SPR (Biacore T200), antibody on Protein A/G, hIgA analyte, 37C; pH 5.8, 3 µM Ca; 1:1 binding model
T1 construct: used as the antigen (analyte); also called hIgA
Method: (§1) The hIgA-binding activities (dissociation constant KD (M)) of the antibodies isolated in (1-3) were assessed using Biacore T200 (GE Healthcare). Measurements were performed using a 0.05% tween20, 20 mmol/L ACES, 150 mmol/L NaCl (pH 7.4 or pH 5.8) solution containing 3 μM or 1.2 mM CaCl₂, or a 0.05% tween20, 20 mmol/L ACES, 150 mmol/L NaCl (pH 8.0) solution containing 0.1 μM or 10 mM CaCl₂ as a running buffer.
(§2) An appropriate amount of recombinant Protein A/G (Thermo Scientific) was immobilized onto a Sensor chip CMS (GE Healthcare) by an amino coupling method, and the antibody was allowed to bind thereto. Then, an appropriate concentration of hIgA (described in (1-1)) was injected as an analyte and allowed to interact with the antibody on the sensor chip. The measurement was carried out at 37° C. After measurement, 10 mmol/L glycine-HCl (pH 1.5) was injected to regenerate the sensor chip. From the measurement result, the dissociation constant KD (M) was calculated by curve fitting analysis and equilibrium analysis using Biacore T200 Evaluation Software (GE Healthcare).

[2] = molecular target: T1, Human IgA (recombinant, H (WT)-IgA1 / L …); experiment: SPR (Biacore T200), antibody on Protein A/G, hIgA analyte, 37C; pH 7.4, 3 µM Ca; 1:1 binding model
Method: as §1, §2

[3] = molecular target: T1, Human IgA (recombinant, H (WT)-IgA1 / L …); experiment: SPR (Biacore T200), antibody on Protein A/G, hIgA analyte, 37C; pH 8.0, 10 mM Ca; 1:1 binding model
Method: as §1, §2

[4] = molecular target: T1, Human IgA (recombinant, H (WT)-IgA1 / L …); experiment: SPR (Biacore T200), antibody on Protein A/G, hIgA analyte, 37C; pH 5.8, 1.2 mM Ca; 1:1 binding model
Method: as §1, §2

[5] = molecular target: T1, Human IgA (recombinant, H (WT)-IgA1 / L …); experiment: SPR (Biacore T200), antibody on Protein A/G, hIgA analyte, 37C; pH 7.4, 1.2 mM Ca; 1:1 binding model
Method: as §1, §2

[6] = molecular target: T1, Human IgA (recombinant, H (WT)-IgA1 / L …); experiment: SPR (Biacore T200), antibody on Protein A/G, hIgA analyte, 37C; pH 8.0, 0.1 µM Ca; 1:1 binding model
Method: as §1, §2

[7] = molecular target: T2, human IgA (hIgA) (human); experiment: SPR (Reference Example 3)
T2 construct: recombinant antigen
Method: as §1, §2

[8] = molecular target: T1, Human IgA (recombinant, H (WT)-IgA1 / L …); experiment: SPR (Biacore T200), antibody on Protein A/G, hIgA analyte, 37C; pH 5.8, 3 µM Ca; Steady State Affinity
Method: as §1, §2

[9] = molecular target: T1, Human IgA (recombinant, H (WT)-IgA1 / L …); experiment: SPR (Biacore T200), antibody on Protein A/G, hIgA analyte, 37C; pH 7.4, 3 µM Ca; Steady State Affinity
Method: as §1, §2

[10] = molecular target: T1, Human IgA (recombinant, H (WT)-IgA1 / L …); experiment: SPR (Biacore T200), antibody on Protein A/G, hIgA analyte, 37C; pH 5.8, 1.2 mM Ca; Steady State Affinity
Method: as §1, §2

[11] = molecular target: T1, Human IgA (recombinant, H (WT)-IgA1 / L …); experiment: SPR (Biacore T200), antibody on Protein A/G, hIgA analyte, 37C; pH 7.4, 1.2 mM Ca; 1:1 binding model; pH 7.4, 1.2 mM Ca; 37 C; 1:1 binding model
Method: as §1, §2

[12] = molecular target: T3, human FcγRIa extracellular domain with C-terminal His tag (human, UniProt P12314 16-292); experiment: SPR, antibody captured, FcgR analyte
T3 construct: Whole entry named; also called FcgRIa

[13] = molecular target: T4, human FcγRIIa R type extracellular domain with C-terminal His tag (human, UniProt P12318 34-217); experiment: SPR, antibody captured, FcgR analyte
T4 construct: extracellular domain; also called FcgRIIaR
T4 sequence (looked up): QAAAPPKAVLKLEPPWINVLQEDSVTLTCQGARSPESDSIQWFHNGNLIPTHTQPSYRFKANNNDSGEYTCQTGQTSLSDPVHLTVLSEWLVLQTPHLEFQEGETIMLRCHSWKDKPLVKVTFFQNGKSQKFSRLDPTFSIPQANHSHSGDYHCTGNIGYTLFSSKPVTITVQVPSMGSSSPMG

[14] = molecular target: T5, human FcγRIIa H type extracellular domain with C-terminal His tag (human, UniProt P12318 34-217); experiment: SPR, antibody captured, FcgR analyte
T5 construct: extracellular domain; also called FcgRIIaH
T5 sequence (looked up): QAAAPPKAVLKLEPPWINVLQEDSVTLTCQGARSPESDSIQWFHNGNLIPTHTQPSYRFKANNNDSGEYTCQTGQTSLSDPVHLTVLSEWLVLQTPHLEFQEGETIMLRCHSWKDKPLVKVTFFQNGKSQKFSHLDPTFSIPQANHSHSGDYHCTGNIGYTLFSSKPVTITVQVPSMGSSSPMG

[15] = molecular target: T6, human FcγRIIb extracellular domain with C-terminal His tag (human, UniProt P31994 43-217); experiment: SPR, antibody captured, FcgR analyte
T6 construct: extracellular domain; also called FcgRIIb
T6 sequence (looked up): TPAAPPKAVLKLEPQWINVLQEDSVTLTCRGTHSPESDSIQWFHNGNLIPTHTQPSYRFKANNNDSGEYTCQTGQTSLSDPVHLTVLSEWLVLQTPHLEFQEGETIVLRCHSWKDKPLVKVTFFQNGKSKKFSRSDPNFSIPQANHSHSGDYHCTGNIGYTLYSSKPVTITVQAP

[16] = molecular target: T7, human FcγRIIIa V type extracellular domain with C-terminal His tag (human, UniProt P08637 17-208); experiment: SPR, antibody captured, FcgR analyte
T7 construct: extracellular domain; also called FcgRIIIaV

[17] = molecular target: T3, human FcγRIa extracellular domain with …; experiment: SPR, KD of IL6R-G1d/IL6R-L divided by KD of variant
[18] = molecular target: T4, human FcγRIIa R type extracellular …; experiment: as above
[19] = molecular target: T5, human FcγRIIa H type extracellular …; experiment: as above
[20] = molecular target: T6, human FcγRIIb extracellular domain with …; experiment: as above
[21] = molecular target: T7, human FcγRIIIa V type extracellular …; experiment: as above
[22] = molecular target: T8, human IgE (human); experiment: SPR Biacore T200, 37 C; pH dependency
T8 construct: recombinant antigen; its variable region is from an anti-human glypican 3 antibody; also called hIgE
Source text: (§3) 1.2 mmol/1 CaCl₂/0.05% tween20, 20 mmol/l ACES, 150 mmol/l NaCl, pH 7.4 [0568] 1.2 mmol/1 CaCl₂/0.05% tween20, 20 mmol/l ACES, 150 mmol/l NaCl, pH 5.8 [0569] 3 μmol/l CaCl₂/0.05% tween20, 20 mmol/l ACES, 150 mmol/l NaCl, pH 5.8
(§4) A peptide produced by adding biotin to Lys present at the C terminus of a chemically synthesized human glypican 3 protein-derived sequence (SEQ ID NO: 12) (hereinafter written as “biotinylated GPC3 peptide”) added at an appropriate amount was immobilized onto Sensor chip SA (GE Healthcare) utilizing the affinity between streptavidin and biotin. An appropriate concentration of human IgE was injected and trapped with the biotinylated GPC3 peptide to immobilize human IgE onto the chip. […] Then, 10 mmol/L glycine-HCl (pH 1.5) was injected to regenerate the sensor chip. All of the assay for the interaction was performed at 37° C. Using Biacore T200 Evaluation Software (GE Healthcare), the assay results were analyzed by curve fitting to determine the binding rate constant ka (1/Ms) and dissociation rate constant kd (1/s). Dissociation constant KD (M) was calculated from the above constants.

[23] = molecular target: T8, human IgE; experiment: SPR Biacore T200, 37 C; pH/Ca dependency
Source text: as §3, §4

[24] = molecular target: T8, human IgE; experiment: SPR Biacore T200, 37 C, hIgE on chip, antibody analyte; pH 5.8, 3 µM Ca
Source text: as §3, §4

[25] = molecular target: T8, human IgE; experiment: SPR Biacore T200, 37 C, hIgE on chip, antibody analyte; pH 5.8, 1.2 mM Ca
Source text: as §3, §4

[26] = molecular target: T8, human IgE; experiment: SPR Biacore T200, 37 C, hIgE on chip, antibody analyte; pH 7.4, 1.2 mM Ca
Source text: as §3, §4

T1 sequence (VH, as listed by the source): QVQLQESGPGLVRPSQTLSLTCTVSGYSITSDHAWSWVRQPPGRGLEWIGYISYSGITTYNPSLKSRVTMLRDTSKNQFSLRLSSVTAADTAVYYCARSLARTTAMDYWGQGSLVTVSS
T8 sequence (heavy, as listed by the source, chain 1 of 2, other chains not shown): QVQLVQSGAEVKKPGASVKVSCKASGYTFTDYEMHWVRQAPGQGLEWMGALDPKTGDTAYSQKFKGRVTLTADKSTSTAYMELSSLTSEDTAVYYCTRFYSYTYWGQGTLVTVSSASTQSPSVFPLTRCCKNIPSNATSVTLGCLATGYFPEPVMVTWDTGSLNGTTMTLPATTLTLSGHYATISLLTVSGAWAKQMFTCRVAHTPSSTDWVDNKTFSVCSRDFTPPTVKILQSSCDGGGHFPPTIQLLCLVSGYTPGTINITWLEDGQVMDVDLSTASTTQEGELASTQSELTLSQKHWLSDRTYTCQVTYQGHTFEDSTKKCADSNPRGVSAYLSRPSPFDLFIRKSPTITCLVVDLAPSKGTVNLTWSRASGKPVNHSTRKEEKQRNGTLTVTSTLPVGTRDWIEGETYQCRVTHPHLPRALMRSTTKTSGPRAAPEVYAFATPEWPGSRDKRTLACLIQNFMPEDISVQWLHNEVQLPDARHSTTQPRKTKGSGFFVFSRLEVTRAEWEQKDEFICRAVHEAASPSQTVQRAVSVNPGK
T3 sequence (P12314 16-292): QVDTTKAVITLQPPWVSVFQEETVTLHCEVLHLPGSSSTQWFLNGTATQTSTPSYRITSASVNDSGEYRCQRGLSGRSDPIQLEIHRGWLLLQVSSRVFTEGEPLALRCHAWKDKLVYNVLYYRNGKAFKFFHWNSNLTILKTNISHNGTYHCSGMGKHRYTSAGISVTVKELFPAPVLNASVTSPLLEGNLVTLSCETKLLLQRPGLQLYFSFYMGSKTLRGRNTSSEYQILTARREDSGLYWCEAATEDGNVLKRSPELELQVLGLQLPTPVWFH
T7 sequence (P08637 17-208 F176V): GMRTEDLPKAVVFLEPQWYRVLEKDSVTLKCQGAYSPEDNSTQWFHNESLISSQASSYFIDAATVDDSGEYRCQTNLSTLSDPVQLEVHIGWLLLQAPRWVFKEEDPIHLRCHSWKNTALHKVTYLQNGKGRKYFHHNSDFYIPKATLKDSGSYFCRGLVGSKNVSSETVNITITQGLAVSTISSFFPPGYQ
T2 sequence (VH, as listed by the source): as the sequence (VH, as listed by the source) above

Kd [1]: 150 nM | Kd [2]: 190 nM | Kd [3]: 100 nM | Kd [4]: 140 nM | Kd [5]: 150 nM | Kd [6]: 220 nM
B1: GA1-IgG1 (antibody, V domains shown)
VH: EVQLVQSGAEVKKPGSSVKVSCKASGGTFSSYAISWVRQAPGQGLEWMGGIIPIFGTANYAQKFQGRVTITADESTSTAYMELSSLRSEDTAVYYCARVAPGNWGSPYFDYWGQGTLVTVSS
VL: DIQMTQSPSSLSASVGDRVTITCRASQSIEDDLAWYQQKPGKAPKLLIYEASSLQSGVPSRFSGSGSGTDFTLTISSLQPEDFATYYCQQRDSSPLTFGQGTKVEIKR

Ca-dependent hIgA-binding activity (fold) [7]: ≥ 100 times
B2: GA2-IgG1 (antibody, V domains shown)
VH: QVQLVQSGAEVKKPGSSVKVSCKASGGTFSSYAISWVRQAPGQGLEWMGGIIPIFGTANYAQKFQGRVTITADESTSTAYMELSSLRSEDTAVYYCARPRWETAISSDAFDIWGQGTMVTVSS
VL: DIQMTQSPSSLSASVGDRVTITCRASQSISDDLNWYQQKPGKAPKLLIYEASNLQSGVPSRFSGSGSGTDFTLTISSLQPEDFATYYCQQHSSSPLTFGQGTKVEIKR
notes: also called GA-IgG1

Kd [5]: 39 nM | Kd [8]: 5000 nM | Kd [9]: 6700 nM | Kd [10]: 4000 nM | kon [11]: 400000 M⁻¹ s⁻¹
B3: GA2-IgG1 (antibody, V domains shown)
VH: QVQLVQSGAEVKKPGSSVKVSCKASGGTFSSYAISWVRQAPGQGLEWMGGIIPIFGTANYAQKFQGRVTITADESTSTAYMELSSLRSEDTAVYYCARPRWETAISSDAFDIWGQGTMVTVSS
VL: DIQMTQSPSSLSASVGDRVTITCRASQSISDDLNWYQQKPGKAPKLLIYEASNLQSGVPSRFSGSGSGTDFTLTISSLQPEDFATYYCQQHSSSPLTFGQGTKVEIKR

Kd [12]: 0.33 nM | Kd [13]: 1400 nM | Kd [14]: 1200 nM | Kd [15]: 2400 nM | Kd [16]: 1600 nM | Relative FcgRIa-binding Activity [17]: 0.97 | Relative FcgRIIaR-binding Activity [18]: 0.79 | Relative FcgRIIaH-binding Activity [19]: 0.517 | Relative FcgRIIb-binding Activity [20]: 0.9 | Relative FcgRIIIaV-binding Activity [21]: 0.231
B4: IL6R-G1dGSS/IL6R-L (antibody, human IgG1, kappa)
heavy: QVQLQESGPGLVKPSETLSLTCAVSGHSISHDHAWSWVRQPPGEGLEWIGFISYSGITNYNPSLQGRVTISRDNSKNTLYLQMNSLRAEDTAVYYCARSLARTTAMDYWGEGTLVTVSSASTKGPSVFPLAPSSKSTSGGTAALGCLVKDYFPEPVTVSWNSGALTSGVHTFPAVLQSSGLYSLSSVVTVPSSSLGTQTYICNVNHKPSNTKVDKKVEPKSCDKTHTCPPCPAPELLGGPSVFLFPPKPKDTLMISRTPEVTCVVVDVSHEDPEVKFNWYVDGVEVHNAKTKPREEQYNSTYRVVSVLTVLHQDWLNGKEYKCKVSNKGLPSSIEKTISKAKGQPREPQVYTLPPSRDELTKNQVSLTCLVKGFYPSDIAVEWESNGQPENNYKTTPPVLDSDGSFFLYSKLTVDKSRWQQGNVFSCSVMHEALHNHYTQKSLSLSP
light: not shown

KD(pH 5.8, 1.2 mM Ca)/KD(pH 7.4, 1.2 mM Ca) [22]: 842 ratio | KD(pH 5.8, 3 µM Ca)/KD(pH 7.4, 1.2 mM Ca) [23]: 1640 ratio | Kd [24]: 3900 nM | koff [24]: 0.24 s⁻¹ | kon [24]: 62000 M⁻¹ s⁻¹ | Kd [25]: 2000 nM | koff [25]: 0.23 s⁻¹ | kon [25]: 120000 M⁻¹ s⁻¹ | Kd [26]: 2.4 nM | koff [26]: 0.0036 s⁻¹ | kon [26]: 1.5e+06 M⁻¹ s⁻¹
B5: clone 278 (IgG1) (antibody, V domains shown)
VH: QSLEESGGRLVTPGTPLTLTCTASGFSLSSYHMSWVRQAPGKGLEWIGVINSAGNTYYASWAKGRFTVSKTSTTVDLNLTSLTTEDTATYFCARYVFSSGSHDIWGPGTLVTVSS
VL: AYDMTQTPASVEVAVGGTVTIKCQASQSIGSWLAWYQQKPGQPPKELIYGTSTLESGVPSRFIGSGSGTEFTLTISGVECADAATYYCQQGYSEDNIDNAFGGGTEVVVKR
notes: pH-dependent anti-human IgE antibody with human IgG1 constant region
